Assay results taken from paper doi:10.1101/2021.04.24.441256.

Target: the engineered RGA5_HMAs
Assay: SPR

Question: For “6xHis-tagged AVR-PikD (from UniProt C4B8B8 22-113) (natural protein)”, which Kd is on record?
Answer: 0.5 to 1.6 nM
